In experiment [1] the target is T1, ATG9A with N-terminal 6xHis and Twin-StrepII tags (human), Q7Z3C6.
T1 chain: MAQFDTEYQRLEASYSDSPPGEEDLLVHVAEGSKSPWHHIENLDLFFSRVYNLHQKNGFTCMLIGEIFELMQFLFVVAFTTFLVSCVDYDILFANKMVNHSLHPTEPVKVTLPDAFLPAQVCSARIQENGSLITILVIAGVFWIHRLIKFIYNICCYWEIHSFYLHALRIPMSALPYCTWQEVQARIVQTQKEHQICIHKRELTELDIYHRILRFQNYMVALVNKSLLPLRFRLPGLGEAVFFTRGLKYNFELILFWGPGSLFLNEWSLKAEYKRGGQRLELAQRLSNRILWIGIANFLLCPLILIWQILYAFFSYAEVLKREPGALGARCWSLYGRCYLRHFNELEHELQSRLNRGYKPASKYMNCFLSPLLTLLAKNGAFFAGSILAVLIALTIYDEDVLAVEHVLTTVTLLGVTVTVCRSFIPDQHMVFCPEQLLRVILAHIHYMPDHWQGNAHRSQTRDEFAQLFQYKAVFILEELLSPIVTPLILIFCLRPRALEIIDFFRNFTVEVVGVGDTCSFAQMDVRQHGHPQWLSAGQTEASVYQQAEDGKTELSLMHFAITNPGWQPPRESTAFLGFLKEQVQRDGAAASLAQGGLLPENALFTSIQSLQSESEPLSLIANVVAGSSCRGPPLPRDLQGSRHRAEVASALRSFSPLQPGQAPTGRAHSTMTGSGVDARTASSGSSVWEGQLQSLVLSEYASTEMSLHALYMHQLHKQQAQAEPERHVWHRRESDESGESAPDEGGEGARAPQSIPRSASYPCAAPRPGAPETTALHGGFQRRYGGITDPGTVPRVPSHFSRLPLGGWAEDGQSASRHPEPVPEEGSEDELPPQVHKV
The experiment can be described thus: cryo-EM structure. Conditions: remark: other sources report otherwise.

The target in experiment [2] is T2, ATG9A with N-terminal 6xHis and Twin-StrepII tags (human, UniProt Q7Z3C6 1-839).
T2 sequence: T1 chain
The experiment can be described thus: cryo-EM structure.

B1: ATG9A with N-terminal 6xHis and Twin-StrepII tags, Q7Z3C6 1-839 (natural protein)
chain: T1 chain
As a reminder, the stoichiometry N is the number of molecules, sites or subunits per partner or assembly. B1: the stoichiometry N in experiment [1] came to 3.

B2: human ATG2A, full length (natural protein)
chain: MSRWLWPWSNCVKERVCRYLLHHYLGHFFQEHLSLDQLSLDLYKGSVALRDIHLEIWSVNEVLESMESPLELVEGFVGSIEVAVPWAALLTDHCTVRVSGLQLTLQPRRGPAPGAADSQSWASCMTTSLQLAQECLRDGLPEPSEPPQPLEGLEMFAQTIETVLRRIKVTFLDTVVRVEHSPGDGERGVAVEVRVQRLEYCDEAVRDPSQAPPVDVHQPPAFLHKLLQLAGVRLHYEELPAQEEPPEPPLQIGSCSGYMELMVKLKQNEAFPGPKLEVAGQLGSLHLLLTPRQLQQLQELLSAVSLTDHEGLADKLNKSRPLGAEDLWLIEQDLNQQLQAGAVAEPLSPDPLTNPLLNLDNTDLFFSMAGLTSSVASALSELSLSDVDLASSVRSDMASRRLSAQAHPAGKMAPNPLLDTMRPDSLLKMTLGGVTLTLLQTSAPSSGPPDLATHFFTEFDATKDGPFGSRDFHHLRPRFQRACPCSHVRLTGTAVQLSWELRTGSRGRRTTSMEVHFGQLEVLECLWPRGTSEPEYTEILTFPGTLGSQASARPCAHLRHTQILRRVPKSRPRRSVACHCHSELALDLANFQADVELGALDRLAALLRLATVPAEPPAGLLTEPLPAMEQQTVFRLSAPRATLRLRFPIADLRPEPDPWAGQAVRAEQLRLELSEPQFRSELSSGPGPPVPTHLELTCSDLHGIYEDGGKPPVPCLRVSKALDPKSTGRKYFLPQVVVTVNPQSSSTQWEVAPEKGEELELSVESPCELREPEPSPFSSKRTMYETEEMVIPGDPEEMRTFQSRTLALSRCSLEVILPSVHIFLPSKEVYESIYNRINNDLLMWEPADLLPTPDPAAQPSGFPGPSGFWHDSFKMCKSAFKLANCFDLTPDSDSDDEDAHFFSVGASGGPQAAAPEAPSLHLQSTFSTLVTVLKGRITALCETKDEGGKRLEAVHGELVLDMEHGTLFSVSQYCGQPGLGYFCLEAEKATLYHRAAVDDYPLPSHLDLPSFAPPAQLAPTIYPSEEGVTERGASGRKGQGRGPHMLSTAVRIHLDPHKNVKEFLVTLRLHKATLRHYMALPEQSWHSQLLEFLDVLDDPVLGYLPPTVITILHTHLFSCSVDYRPLYLPVRVLITAETFTLSSNIIMDTSTFLLRFILDDSALYLSDKCEVETLDLRRDYVCVLDVDLLELVIKTWKGSTEGKLSQPLFELRCSNNVVHVHSCADSCALLVNLLQYVMSTGDLHPPPRPPSPTEIAGQKLSESPASLPSCPPVETALINQRDLADALLDTERSLRELAQPSGGHLPQASPISVYLFPGERSGAPPPSPPVGGPAGSLGSCSEEKEDEREEEGDGDTLDSDEFCILDAPGLGIPPRDGEPVVTQLHPGPIVVRDGYFSRPIGSTDLLRAPAHFPVPSTRVVLREVSLVWHLYGGRDFGPHPGHRARTGLSGPRSSPSRCSGPNRPQNSWRTQGGSGRQHHVLMEIQLSKVSFQHEVYPAEPATGPAAPSQELEERPLSRQVFIVQELEVRDRLASSQINKFLYLHTSERMPRRAHSNMLTIKALHVAPTTNLGGPECCLRVSLMPLRLNVDQDALFFLKDFFTSLVAGINPVVPGETSAEARPETRAQPSSPLEGQAEGVETTGSQEAPGGGHSPSPPDQQPIYFREFRFTSEVPIWLDYHGKHVTMDQVGTFAGLLIGLAQLNCSELKLKRLCCRHGLLGVDKVLGYALNEWLQDIRKNQLPGLLGGVGPMHSVVQLFQGFRDLLWLPIEQYRKDGRLMRGLQRGAASFGSSTASAALELSNRLVQAIQATAETVYDILSPAAPVSRSLQDKRSARRLRRGQQPADLREGVAKAYDTVREGILDTAQTICDVASRGHEQKGLTGAVGGVIRQLPPTVVKPLILATEATSSLLGGMRNQIVPDAHKDHALKWRSDSAQD
As to B2, in experiment [2], the “stoichiometry N” value is 1 ATG2A per ATG9A trimer.

The values are drawn from doi:10.1101/2023.07.08.548186 (bioRxiv, 2023).
